Test results taken from publication PMC4771647, “Improving the thermostability and stress tolerance of an archaeon hyperthermophilic superoxide dismutase by fusion with a unique N-terminal domain” (SpringerPlus, 2016).
Several values for one entry are separate records, joined by “and”; a condition that tells them apart may be missing. Identical values can stand only once.

B1: superoxide dismutase from the archaeon Sulfolobus solfataricus (SODSs) (enzyme, UniProt P80857 1-211, looked up)
chain: MTLQIQFKKYELPPLPYKIDALEPYISKDIIDVHYNGHHKGYVNGANSLLERLEKVVKGDLQTGQYDIQGIIRGLTFNINGHKLHALYWENMAPSGKGGGKPGGALADLINKQYGSFDRFKQVFTETANSLPGTGWAVLYYDTESGNLQIMTFENHFQNHIAEIPIILILDEFEHAYYLQYKNKRADYVNAWWNVVNWDAAEKKLQKYLTK
notes: Fe superoxide dismutase (SODSs) of Sulfolobus solfataricus; gene synthesised into pET-28a (pET-SODSs); expected size 24.2 kDa; Tetramer by analytical ultracentrifugation (major peak), with small quantities of dimers; also called Fe-SODSs; native SODSs

Experiments:
[1] = molecular target: rSODSs, fusion of the N-terminal domain (NTD) of SOD NG2215 of Geobacillus thermodenitrificans NG80-2 with SODSs (Geobacillus thermodenitrificans NG80-2 | Sulfolobus solfataricus); assay: AUC; sedimentation velocity, interference data, 36,000 rpm, An-60 Ti rotor, 4 °C; 50 mM potassium phosphate buffer plus 150 mM NaCl, pH 8.0; continuous c(s) distribution (SEDFIT)
[2] = molecular target: the molecule itself; assay: as above

Molecule	stoichiometry N [1]	stoichiometry N [2]
rSODSs, fusion of the N-terminal domain (NTD) of SOD NG2215 of Geobacillus thermodenitrificans NG80-2 with SODSs (enzyme)	4 and 2	
B1		4 and 2
